Source: article PMC6119766, “Terminal Regions Confer Plasticity to the Tetrameric Assembly of Human HspB2 and HspB3” (Journal of Molecular Biology, 2018)

B1: human HspB2 (natural protein, UniProt Q16082 1-182, looked up)
chain: MSGRSVPHAHPATAEYEFANPSRLGEQRFGEGLLPEEILTPTLYHGYYVRPRAAPAGEGSRAGASELRLSEGKFQAFLDVSHFTPDEVTVRTVDNLLEVSARHPQRLDRHGFVSREFCRTYVLPADVDPWRVRAALSHDGILNLEAPRGGRHLDTEVNEVYISLLPAPPDPEEEEEAAIVEP
notes: human HspB2 (small heat shock protein B2); Made together with HspB3 from one pET3a construct; also called HsB2; HspB2_Human; source: E. coli BL21(DE3), pET3a-HspB2/B3, purified (DEAE-Sepharose, Source 15Q)
B3: rat HspB3 (natural protein, UniProt Q9QZ58 1-152, looked up)
chain: MAKIILRHLIETPVRYQEEFEARGLEDCRLDHALYALPGPTIEDLRKARGTPKALAEDSDSAETPPGEGKSRFQILLDVVQFLPEDIIIQTFEGWLLIKAQHGTRMDEHGFISRSFTRQYKLPDGVETKDLSAILCHDGILVVEVKDPLETK
notes: rat HspB3, wild type; ultimate C-terminal residue K152; also called RnB3; HspB3_Rat
B4: engineered human HspB3 with the C-terminal extension of human HspB2 (HspB3 + B2tail) (other)
chain: MAKIILRHLIEIPVRYQEEFEARGLEDCRLDHALYALPGPTIVDLRKTRAAQSPPVDSAAETPPREGKSHFQILLDVVQFLPEDIIIQTFEGWLLIKAQHGTRMDEHGFISRSFTRQYKLPDGVEIKDLSAVLCHDGILVVEVKDPVGTPEEEEEAAIVEP
notes: human HspB3 without its C-terminal lysine, which was replaced by the HspB2 tail; last 12 amino acids of human HspB2, residues 171-182; The results say the tail was added to the C-terminus; the methods say it replaced the C-terminal lysine (the reverse primer fits the methods); also called engineered HspB3 mutant; engineered mutant human HspB3; source: E. coli BL21(DE3), pET3a-HspB2/B3 mutant, …
B5: rat HspB2 (natural protein, UniProt O35878 1-182, looked up)
chain: MSGRTVPHAHPATAEYEFANPSRLGEQRFGEGLLPEEILTPTLYHGYYVRPRAARAGEGGRAGASELRLSEGKFQAFLDVSHFTPDEVTVRTVDNLLEVSARHPQRLDRHGFVSREFCRTYVLPADVDPWRVRAALSHDGILNLEAPRGGRHLDTEVNEVYISLLPAPPDPEEEEEVARVEP
notes: rat HspB2, wild type; C-terminal residues E172 to P182 seen by NMR; also called RnB2; HspB2_Rat
B6: human HspB3 (wild type) (natural protein, UniProt Q12988 1-150, looked up)
chain: MAKIILRHLIEIPVRYQEEFEARGLEDCRLDHALYALPGPTIVDLRKTRAAQSPPVDSAAETPPREGKSHFQILLDVVQFLPEDIIIQTFEGWLLIKAQHGTRMDEHGFISRSFTRQYKLPDGVEIKDLSAVLCHDGILVVEVKDPVGTK
notes: human HspB3 (small heat shock protein B3); HspB3 could not be purified alone; it is obtained only in complex with HspB2; also called HsB3; HspB3_Human; source: E. coli BL21(DE3), pET3a-HspB2/B3 wild type, purified with HspB2 (DEAE-Sepharose, Source 15Q)

Experiments:
[1] = target: B4; test: SEC + native MS; HspB2/B3 complexes; Superdex 200 10/300 fractions nanoelectrosprayed at 10 μM in 200 mM ammonium acetate (pH 6.9); conditions: both partners purified
human HspB3 (wild type) = target: B6; test: as above; conditions: both partners purified
[2] = target: the molecule itself; test: crystal structure; hanging drop at 21 °C; 3.9 Å; space group P3(1); three hetero-tetramers (12 chains) in the asymmetric unit
[3] = target: the molecule itself; test: SEC + native MS; HspB2/B3 complexes; Superdex 200 10/300 fractions nanoelectrosprayed at 10 μM in 200 mM ammonium acetate (pH 6.9)
human HspB2 [4] = target: B1; test: as above; conditions: both partners purified
human HspB2 [5] = target: B1; test: crystal structure; hanging drop at 21 °C; 3.9 Å; space group P3(1); three hetero-tetramers (12 chains) in the asymmetric unit; conditions: both partners purified
rat HspB3 = target: B3; test: SEC + native MS; HspB2/B3 complexes; Superdex 200 10/300 fractions nanoelectrosprayed at 10 μM in 200 mM ammonium acetate (pH 6.9); conditions: both partners purified
rat HspB2 = target: B5; test: as above; conditions: both partners purified

B1
stoichiometry N [1]: 3 HspB2 per HspB3 | stoichiometry N (human HspB3 (wild type)): 3 HspB2 per HspB3 | binding result [2]: binds

B2: rat HspB2/B3 hetero-tetramer (complex)
chain 1: MSGRTVPHAHPATAEYEFANPSRLGEQRFGEGLLPEEILTPTLYHGYYVRPRAARAGEGGRAGASELRLSEGKFQAFLDVSHFTPDEVTVRTVDNLLEVSARHPQRLDRHGFVSREFCRTYVLPADVDPWRVRAALSHDGILNLEAPRGGRHLDTEVNEVYISLLPAPPDPEEEEEVARVEP
chain 2: MAKIILRHLIETPVRYQEEFEARGLEDCRLDHALYALPGPTIEDLRKARGTPKALAEDSDSAETPPGEGKSRFQILLDVVQFLPEDIIIQTFEGWLLIKAQHGTRMDEHGFISRSFTRQYKLPDGVETKDLSAILCHDGILVVEVKDPLETK
notes: rat HspB2, as m5; rat HspB3, as m6; The protomer that forms the higher oligomers; also called wild-type rat HspB2/B3; copies: 3 + 1
stoichiometry N [3]: 8 to 24 chains (the hetero-tetramer has 4)

B3
binding result (human HspB2 [4]): binds

B4
binding result (human HspB2 [5]): binds

B5
stoichiometry N (rat HspB3): 3 HspB2 per HspB3

B6
binding result (rat HspB2): binds
